# From patent publication US20190046600
# T1: Ac-DEVD-CHO
# T1 chain: DEVD
# T2: HILR-030 (cyclo-[Pro-Arg-Gly-Pro-Arg-Pro-Val-Trp-Trp-Gpa-Gpa-Trp-Trp-Gpa-Gpa-Trp-Trp])
# T2 chain: PRGPRPVWWXXWWXXWW
# Legend:
# Ac-DEVD-CHO = target: T1, Ac-DEVD-CHO
# [1] = target: T2, HILR-030 …
protein,measurement,setting,value
recombinant human caspase 3 enzyme (protein) SGISLDNSYKMDYPEMGLCIIINNKNFHKSTGMTSRSGTDVDAANLRETFRNLKYEVRNKNDLTREEIVELMRDVSKEDHSKRSSFVCVLLSHGEEGIIFGTNGPVDLKKITNFFRGDRCRSLTGKPKLFIIQACRGTELDCGIETDSGVDDDMACHKIPVEADFLYAYSTAPGYYSWRNSKDGSWFIQSLCAMLKQYADKLEFMHILTRVNRKVATEFESFSFDATFHAKKQIPCIVSMLTKELYFYH,"caspase-3 activity (Apo-ONE Homogeneous Caspase-3/7 assay, 2 h co-incubation with substrate or enzyme)",Ac-DEVD-CHO,Both DEVD-CHO and HILR-030 inhibited the caspase-3 activity in a dose-dependent fashion
same,"caspase-3 activity (Apo-ONE Homogeneous Caspase-3/7 assay, cleavage of Z-DEVD-R110, recombinant enzyme)",Ac-DEVD-CHO,"Ac-DEVD-CHO inhibited the activity of caspase-3 in a dose-dependent manner, giving rise to IC50s within the expected range according to the inhibitor specification sheet"
same,"caspase-3 activity (Apo-ONE Homogeneous Caspase-3/7 assay, 2 h co-incubation with substrate or enzyme)",[1],Both DEVD-CHO and HILR-030 inhibited the caspase-3 activity in a dose-dependent fashion
